In US20120076796A1 (Ablynx, published 2012):

Columns and labels:
[1] = target: T1, Recombinant human Angiopoietin-1 (R&D Systems Cat No 923-AN/CF) (human, UniProt Q15389 20-498, limits assumed); assay: phage ELISA: 10 ul monoclonal phage supernatant in 100 ul on 0.2 ug/ml coated Ang1, anti-M13-HRP, OD 450 nm
T1 construct: Bought reagent; also called Ang1; human Ang1
T1 sequence (looked up): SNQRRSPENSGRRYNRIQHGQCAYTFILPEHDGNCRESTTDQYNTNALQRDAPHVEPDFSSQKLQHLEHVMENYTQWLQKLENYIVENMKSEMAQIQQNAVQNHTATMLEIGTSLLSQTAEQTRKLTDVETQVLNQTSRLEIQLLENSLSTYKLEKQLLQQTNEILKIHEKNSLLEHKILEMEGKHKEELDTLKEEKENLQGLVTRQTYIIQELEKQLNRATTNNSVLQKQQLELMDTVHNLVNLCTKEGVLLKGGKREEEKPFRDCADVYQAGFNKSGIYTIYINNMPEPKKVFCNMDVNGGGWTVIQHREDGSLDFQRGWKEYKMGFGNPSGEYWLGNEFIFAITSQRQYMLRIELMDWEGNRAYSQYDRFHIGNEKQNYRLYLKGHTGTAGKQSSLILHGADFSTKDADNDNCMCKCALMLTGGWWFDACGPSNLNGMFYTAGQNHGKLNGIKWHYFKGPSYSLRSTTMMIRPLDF
Experimental: In order to determine binding specificity to Ang1, the clones are tested in an ELISA binding assay setup, using the monoclonal phage pools. Phage binding to Ang1 (R&D Systems Cat No 923-AN/CF, Lot No FHWO73091) is tested. Shortly, 0.2 ug/ml Ang1 is immobilized on Maxisorp ELISA plates (Nunc) and free binding sites are blocked using 4% Marvel skimmed milk in PBS. Next, 10 ul of supernatant from the monoclonal phage inductions of the different clones in 100 ul 2% Marvel PBS are allowed to bind to the immobilized antigen. […] Binding specificity is determined based on OD values compared to controls having received an irrelevant phage or no phage.

[2] = target: T2, recombinant human Tie2/Fc Chimera (R&D Systems Cat No 313-TI, Lot No BKC06) (human, UniProt Q02763 23-745); assay: competition ELISA: 0.2 ug/ml Tie2/Fc pre-incubated with a dilution series of purified Nanobody, then on coated Ang1 (0.75 ug/ml); bound Tie2/Fc detected with anti-human IgG-HRP; blocked ligand: Ang1
T2 construct: Bought reagent; also called receptor; not shown: Fc portion of the bought chimera
Experimental: In order to determine the receptor blocking efficiency of clones tested positive for Ang1 competition, a dilution series of purified Nanobodies are tested in the ELISA-based ligand competition setup. In short, 0.75 ug/ml human. Ang1 (R&D Systems Cat No 923-AN/CF Lot No FHWO73091) is coated in 96 well Maxisorp microliter plates (Nunc) and blocked with 4% Marvel skimmed milk in PBS. In parallel, 0.2 ug/ml Tie2/Fc is incubated with a dilution series of purified Nanobodies. After 1 hour, the receptor-Nanobody pre-mixes are incubated 1 hour with the coated ligand. Bound Tie2/Fc is detected using HRP-conjugated goat anti-human IgG (Jackson Immunoresearch, Cat #109-035-098). Blocking activity is determined as loss of OD signal, as compared to wells where no P.E., or irrelevant P.E., has been added.

[3] = target: T3, Recombinant human Angiopoietin-2 (R&D Systems Cat No 623-AN/CF) (human, UniProt O15123 19-496, limits assumed); assay: listed in the alignment of Ang2 binding Nanobodies; assay not told for this clone
T3 construct: Bought reagent; also called Ang2; human Ang2
T3 sequence (looked up): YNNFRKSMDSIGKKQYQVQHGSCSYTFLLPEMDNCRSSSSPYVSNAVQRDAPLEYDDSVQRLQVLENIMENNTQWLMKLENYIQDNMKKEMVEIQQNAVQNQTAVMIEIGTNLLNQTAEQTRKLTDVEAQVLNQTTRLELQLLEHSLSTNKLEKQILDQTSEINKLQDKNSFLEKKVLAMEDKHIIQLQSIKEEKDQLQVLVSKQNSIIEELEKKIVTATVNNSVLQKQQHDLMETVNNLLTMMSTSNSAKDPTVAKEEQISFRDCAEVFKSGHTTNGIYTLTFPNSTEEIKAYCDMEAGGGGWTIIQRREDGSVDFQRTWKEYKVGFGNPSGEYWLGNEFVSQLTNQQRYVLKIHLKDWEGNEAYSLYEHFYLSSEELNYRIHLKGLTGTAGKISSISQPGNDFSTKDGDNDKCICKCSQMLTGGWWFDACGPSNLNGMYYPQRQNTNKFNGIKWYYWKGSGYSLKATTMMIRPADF

[4] = target: T4, biotinylated rh Ang2 (R&D Systems Cat No BT623, Lot No BNR174091) (human, UniProt O15123 19-496, limits assumed, biotinylated (sites not given)); assay: competition ELISA: 0.05 ug/ml biotinylated Ang2 pre-incubated with a dilution series of purified Nanobody, then on coated Tie2/Fc (4 ug/ml); bound Ang2 detected with extravidin-HRP; blocked partner: Tie2/Fc
T4 construct: Bought reagent; also called biotinylated Ang2
T4 sequence (looked up): T3 sequence (looked up)
Experimental: In order to determine the receptor blocking efficiency of clones tested positive for Ang2 blocking, a dilution series of purified Nanobodies are tested in the ELISA-based ligand competition setup. In short, 4 ug/ml human Tie2/Fc Chimera (R&D Systems Cat No 313-TI, Lot No BKC06)) is coated in 96 well Maxisorp microtiter plates (Nunc) and blocked with 4% Marvel skimmed milk in PBS. In parallel, 0.05 ug/ml biotinylated rh Ang2 (R&D Systems Cat No BT623, Lot No BNR174091) is incubated with a dilution series of purified Nanobodies. After 1 hour, the biotinylated Ang2-Nanobody pre-mixes are incubated 1 hour with the coated receptor. Bound biotinylated Ang2 is detected using HRP-conjugated extravidin (SIGMA E2886-1ML, 126K4801). Blocking activity is determined as loss of OD signal, as compared to wells where no P.E., or irrelevant P.E. has been added.

[5] = target: T2, recombinant human Tie2/Fc Chimera (R&D …); assay: phage ELISA: 10 ul monoclonal phage supernatant in 100 ul on 0.2 ug/ml coated Tie2/Fc, anti-M13-HRP, OD 450 nm
Experimental: In order to determine binding specificity to Tie2, the clones are tested in an ELISA binding assay setup, using the monoclonal phage pools. Phage binding to Tie2/Fc Chimera (R&D Systems Cat No 313-TI, Lot No BKC06) is tested. Shortly, 0.2 ug/ml receptor is immobilized on Maxisorp ELISA plates (Nunc) and free binding sites are blocked using 4% Marvel skimmed milk in PBS. Next, 10 ul of supernatant from the monoclonal phage inductions of the different clones in 100 ul 2% Marvel PBS are allowed to bind to the immobilized antigen. […] Binding specificity is determined based on OD values compared to controls having received no phage and to controls where in a similar ELISA binding assay the same monoclonal phage are tested for binding to 0.2 ug/ml of immobilized human IgG and 0.2 ug/ml of rh B7.2/Fc.

T2 sequence (Q02763 23-745, change not shown): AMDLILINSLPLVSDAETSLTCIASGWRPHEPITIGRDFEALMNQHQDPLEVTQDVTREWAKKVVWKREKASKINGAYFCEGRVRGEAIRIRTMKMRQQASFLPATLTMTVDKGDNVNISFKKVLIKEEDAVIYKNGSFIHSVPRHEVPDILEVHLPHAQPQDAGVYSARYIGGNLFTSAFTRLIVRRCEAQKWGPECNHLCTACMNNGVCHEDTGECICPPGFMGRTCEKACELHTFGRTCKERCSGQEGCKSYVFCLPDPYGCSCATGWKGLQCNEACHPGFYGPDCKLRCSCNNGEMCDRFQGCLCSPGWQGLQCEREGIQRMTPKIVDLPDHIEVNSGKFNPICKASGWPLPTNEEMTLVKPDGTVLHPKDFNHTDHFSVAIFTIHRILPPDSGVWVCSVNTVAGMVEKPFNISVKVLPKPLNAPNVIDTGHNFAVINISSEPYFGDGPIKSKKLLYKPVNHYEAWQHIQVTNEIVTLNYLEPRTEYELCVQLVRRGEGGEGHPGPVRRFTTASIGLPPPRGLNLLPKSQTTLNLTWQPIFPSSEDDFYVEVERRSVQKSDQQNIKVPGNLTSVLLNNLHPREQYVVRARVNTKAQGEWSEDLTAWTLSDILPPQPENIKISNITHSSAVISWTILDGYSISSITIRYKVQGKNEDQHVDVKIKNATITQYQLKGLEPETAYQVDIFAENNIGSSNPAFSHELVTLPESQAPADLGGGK

B1: 184-B6 (VHH)
VHH: EVQLVESGGGLVQPGGSLRLSCAASGFTFSNYAMTWVRQAPGKGLEWVSDISWDGDITTYAASVKGRFTISRDNAKKTLYLQMNSLKPEDSAVYYCNTYGYDSGRYYSYWGQGTQVTVSS
notes: Nanobody
[1]
  binding result: binds

B2: 173-H9 (VHH)
VHH: EVQLVESGGGLVQPGGSLRLSCAASGFTLSGNWMYWLRQAPGKGLEWISTITPRGLTAYADSVKGRFTISRDIAENTLYLQMNSLKSGDTAVYYCARDKTGERRGQGTQVTVSS
notes: Nanobody
[1]
  binding result: binds

B3: 162-E1 (VHH)
VHH: EVQLVESGGGLVQAGGSLRLSCAASGSIFSINAMGWYQQAPGKQRELVAFITSVGTTNYADSVKGRFIISRDNAKNTVYLQMNSLKPEDTAVYYCAADLHYSGPNYWGQGTQVTVSS
notes: Nanobody; Footnote: q in FR2 of 162-E1 from an Amber stop codon
[2]
  IC50 (read off the curve): ~3 nM

B4: 166-H5 (VHH)
VHH: EVQLVESGGGLVQAGGSLSLACVVSGRFSRINSMAWSRQVPGNARELVASVTSGGYTNYVDSVKGRFTISRDNAKNAIYLQMNSLKSEDTAVYYCNARVVVRTAHGFEDNYWGQGTQVTVSS
[3]
  binding result: binds

B5: 166-H4 (VHH)
VHH: EVQLVESGGDLVQAGGSLRLSCAASGFTFGDFTIGWFRQAPGKEREGVSCINTGDGSTNYAESVKGRFTISSDNAKNTVYLQMNSLKPEDTAVYYCALDQAPMWSSWSAPYEYDYWGQGTQVTVSS
notes: Nanobody
[4]
  IC50 (read off the curve): ~4 nM

B6: 162-E9 (VHH)
VHH: EVQLVESGGGLVQPGGSLRLSCAASGFTLDDYAIGWFRQAPGKEREAVSCISSVDGSTHYADSVKGRFTISRDNAKDTVYLQMNSLKPEDTAAYYCAVQGYSGGYYYTCEDSADFGFWGQGTQVTVSS
notes: Nanobody
[2]
  IC50 (read off the curve): ~3 nM

B7: 185-H5 (VHH)
VHH: EVQLVESGGGLVQPGGSLRLSCAASGFTLDYYAIGWFRQAPGKEREGVSYISSSDGRTYYADSVKGRFTISRDNAKNTVYLQMNSLKPEDTAVYYCATDLSGRGDVSEYEYDYWGQGTQVTVSS
notes: Nanobody
[1]
  binding result: binds

B8: 162-F3 (VHH)
VHH: EVQLVESGGGLVQAGDSLRLSCTTSGRTFSDDTMGWFRQAPRKEREFVAAILWDSIKTYYADSVKGRFTISRDNAKNTVYLQMDSLKPEDTAVYYCAATPTAYGTDWYRNNYHYWGQGTQVTVSS
notes: Nanobody
[5]
  binding result: binds
